Experimental data from US20150044236A1.
No end group written: not given here.

Columns and labels:
[1] = molecular target: human Kv1.3 voltage-gated potassium channel (human) (UniProt P22001); test: cell-based or functional assay
[2] = molecular target: human Kv1.1 voltage-gated potassium channel (human) (UniProt Q09470); test: cell-based or functional assay
[3] = molecular target: DNP(3)-BSA (2,4-dinitrophenol conjugated to bovine serum albumin, 3 DNP moieties per BSA) (bovine) (UniProt P02769); test: BIAcore SPR; antibody captured on anti-human IgG Fc surface, DNP(3)-BSA injected (0.78-100 nM); apparent constants
[4] = molecular target: DNP(31)-BSA (2,4-dinitrophenol conjugated to bovine serum albumin, 31 DNP moieties per BSA) (bovine) (UniProt P02769); test: BIAcore SPR; antibody captured on anti-human IgG Fc surface, DNP(31)-BSA injected (0.78-100 nM); apparent constants
[5] = molecular target: DNP(31)-BSA (2,4-dinitrophenol conjugated to bovine serum albumin, 31 DNP moieties per BSA) (bovine) (UniProt P02769); test: BIAcore SPR; antibody captured on anti-human IgG Fc surface, DNP(31)-BSA injected (0.39-50 nM); apparent constants
[6] = molecular target: DNP(3)-BSA (2,4-dinitrophenol conjugated to bovine serum albumin, 3 DNP moieties per BSA) (bovine) (UniProt P02769); test: BIAcore SPR; antibody captured on anti-human IgG Fc surface, DNP(3)-BSA injected (0.78-100 nM); apparent constants; DNP(3)-BSA, not DNP(31)-BSA

Chain of DNP(3)-BSA (2,4-dinitrophenol conjugated to bovine serum albumin, 3 DNP moieties per BSA) (bovine) (P02769 25-607 limits assumed): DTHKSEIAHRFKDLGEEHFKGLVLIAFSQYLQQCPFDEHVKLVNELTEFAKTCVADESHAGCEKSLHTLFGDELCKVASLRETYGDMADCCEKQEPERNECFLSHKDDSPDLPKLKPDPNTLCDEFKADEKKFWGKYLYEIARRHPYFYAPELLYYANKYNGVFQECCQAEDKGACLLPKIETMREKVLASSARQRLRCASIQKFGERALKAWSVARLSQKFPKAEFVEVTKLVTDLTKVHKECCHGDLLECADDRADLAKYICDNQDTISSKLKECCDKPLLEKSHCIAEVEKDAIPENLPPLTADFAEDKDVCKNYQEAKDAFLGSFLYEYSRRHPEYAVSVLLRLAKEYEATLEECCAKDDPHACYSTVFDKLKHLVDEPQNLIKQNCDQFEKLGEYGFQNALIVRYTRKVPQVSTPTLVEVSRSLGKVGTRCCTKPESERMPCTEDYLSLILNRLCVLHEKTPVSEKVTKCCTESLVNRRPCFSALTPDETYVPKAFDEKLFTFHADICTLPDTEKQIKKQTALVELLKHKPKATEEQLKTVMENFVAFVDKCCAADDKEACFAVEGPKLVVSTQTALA
Chain of DNP(31)-BSA (2,4-dinitrophenol conjugated to bovine serum albumin, 31 DNP moieties per BSA) (bovine) (P02769 25-607 limits assumed): as above
Chain of human Kv1.1 voltage-gated potassium channel (human) (Q09470 whole entry): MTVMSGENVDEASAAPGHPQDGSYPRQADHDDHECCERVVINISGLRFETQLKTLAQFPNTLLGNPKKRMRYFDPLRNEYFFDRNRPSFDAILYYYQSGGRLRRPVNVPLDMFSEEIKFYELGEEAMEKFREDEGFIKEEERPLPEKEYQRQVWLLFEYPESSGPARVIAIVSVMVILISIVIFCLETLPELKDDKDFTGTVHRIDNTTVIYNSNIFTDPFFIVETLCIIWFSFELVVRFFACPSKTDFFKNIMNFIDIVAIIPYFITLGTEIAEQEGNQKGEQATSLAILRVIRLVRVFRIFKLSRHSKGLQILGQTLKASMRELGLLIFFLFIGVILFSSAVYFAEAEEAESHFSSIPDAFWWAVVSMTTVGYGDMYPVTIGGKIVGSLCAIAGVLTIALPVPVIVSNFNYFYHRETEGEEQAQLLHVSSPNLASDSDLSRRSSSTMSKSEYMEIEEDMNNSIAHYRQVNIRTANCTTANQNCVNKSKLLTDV
Chain of human Kv1.3 voltage-gated potassium channel (human) (P22001 whole entry): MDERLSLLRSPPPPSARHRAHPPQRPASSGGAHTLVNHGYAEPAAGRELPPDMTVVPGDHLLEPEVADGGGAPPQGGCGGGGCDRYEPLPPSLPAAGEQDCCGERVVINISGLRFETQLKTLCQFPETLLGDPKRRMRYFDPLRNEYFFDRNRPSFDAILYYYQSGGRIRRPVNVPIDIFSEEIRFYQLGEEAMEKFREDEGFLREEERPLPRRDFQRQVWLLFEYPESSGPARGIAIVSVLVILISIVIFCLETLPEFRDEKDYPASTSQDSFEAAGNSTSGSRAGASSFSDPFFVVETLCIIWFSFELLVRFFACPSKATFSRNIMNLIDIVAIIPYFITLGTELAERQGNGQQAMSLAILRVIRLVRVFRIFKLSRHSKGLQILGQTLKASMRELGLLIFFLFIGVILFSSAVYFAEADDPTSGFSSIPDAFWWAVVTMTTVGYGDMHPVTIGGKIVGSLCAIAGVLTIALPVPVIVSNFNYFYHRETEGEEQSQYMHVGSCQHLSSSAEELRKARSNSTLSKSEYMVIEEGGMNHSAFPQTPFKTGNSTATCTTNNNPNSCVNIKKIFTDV

## 20 kDa-PEG-[Lys16]ShK (peptide)
[1]
  Potency Relative to ShK (WB, IL2): 1.37 fold

## Monovalent Fc/Fc-L10-ShK[2-35] heterodimer (IgG1) (Fc fusion)
[1]
  Potency Relative to ShK (WB, IL2): 32.1 fold
  WB (IFNg) IC50: 5.2 nM
  WB (IL-2) IC50: 2.15 nM

## 20 kDa-PEG-ShK (peptide)
[2]
  Kv1.1 IC50 (asterisk: whole cell patch clamp): 1.63 nM
[1]
  Kv1.3 IC50 (asterisk: whole cell patch clamp): 0.299 nM
  Potency Relative to ShK (WB, IL2): 5.67 fold

B1: anti-DNP antibody 3B1 (purified from hybridoma) (antibody, human IgG2, kappa, V domains shown)
VH: QVQLQESGPGLVKPSETLSLTCTVSGGSISSYYWSWIRQPPGKGLEWIGYIYYSGNTNSNPSLKSRVTISVDTSKNQFSLKLSSVTAADTAVYYCARTYYDSSGYYYRAFDIWGQGTMVTVSS
VL: DIQMTQSPSSLSASEGDRVTITCRASQGIRNDLGWYQQKPGKAPKRLIYAASSLQSGVPLRFSGSGSGTEFTLTISSLQPEDFATYYCLQYNSYPWTFGQGTKVEIKR
[3]
  Kd: 3 nM
  koff: 0.00036 s⁻¹
  kon: 140000 M⁻¹ s⁻¹
[4]
  Kd: 0.2 nM
  koff: 5.8e-05 s⁻¹
  kon: 370000 M⁻¹ s⁻¹

B2: anti-DNP antibody 3B1-G2 (recombinant, CHO) (antibody, human IgG2, kappa, V domains shown)
VH: B1 VH
VL: B1 VL
[5]
  Kd: 0.7 nM
  koff: 0.00031 s⁻¹
  kon: 420000 M⁻¹ s⁻¹

B3: Bivalent Fc-L10-ShK[2-35] homodimer (IgG1) (Fc fusion)
chain: GGGGSGGGGSSCIDTIPKSRCTAFQCKHSMKYRLSFCRKTCGTC
modifications: not fully specified (N-terminus, bridges); ends and bridges not checked; also: bivalent homodimer via IgG1 Fc
[2]
  Kv1.1 IC50 (asterisk: whole cell patch clamp): 0.411 nM
[1]
  Kv1.3 IC50 (asterisk: whole cell patch clamp): 0.116 nM
  Potency Relative to ShK (WB, IL2): 8.73 fold
  WB (IFNg) IC50: 2.29 nM
  WB (IL-2) IC50: 0.585 nM

B4: anti-DNP antibody 3A1 (purified from hybridoma) (antibody, human IgG2, kappa, V domains shown)
VH: QVQLQESGPGLVKPSETLSLTCTVSGGSISHYYWSWIRQPPGKGLGWIGYIYYSGSTNYNPSLKSRVTISVDTSKNQFSLKLTSVTAADTAVYYCARARGDGYNYPDAFDIWGQGTMVTVSS
VL: DIQMTQSPSSVSASVGDRVTITCRASQGISNWLAWYQRKPGKAPKLLIYAASSLQSGVPSRFSGSGSGTDFTLTISSLQPEDFAAYYCQQASSFPWTFGQGTRVEIKR
[6]
  kon: 1200 M⁻¹ s⁻¹
[3]
  Kd: 526 nM
  koff: 0.00065 s⁻¹
[4]
  Kd: 9 nM
  koff: 0.00031 s⁻¹
  kon: 34000 M⁻¹ s⁻¹

B5: Bivalent Fc-L10-ShK[1-35] homodimer (IgG1) (Fc fusion)
chain: GGGGSGGGGSRSCIDTIPKSRCTAFQCKHSMKYRLSFCRKTCGTC
modifications: not fully specified (N-terminus, bridges); ends and bridges not checked; also: bivalent homodimer via IgG1 Fc
[2]
  Kv1.1 IC50 (asterisk: whole cell patch clamp): 0.067 nM
[1]
  Kv1.3 IC50 (asterisk: whole cell patch clamp): 0.015 nM
  Potency Relative to ShK (WB, IL2): 5.76 fold
  WB (IFNg) IC50: 0.32 nM
  WB (IL-2) IC50: 0.386 nM
